Measurements reported in patent US20090209433.

Target: VDAC from Yeast (voltage dependent anion selective channel), purified (UniProt P04840)

Substance: bovine cytochrome c oxidase holoenzyme (crystal grade)
- KM (µM) at VDAC 50 nM: 28 µM
- KM (µM) at VDAC 100 nM: 44 µM
- KM (µM) at VDAC 200 nM: 59 µM
- VMAX (µM/min) at VDAC 50 nM: 132 µM/min
- VMAX (µM/min) at VDAC 100 nM: 199 µM/min
- VMAX (µM/min) at VDAC 200 nM: 224 µM/min
- VMAX/KM (1/min) at VDAC 50 nM: 4.7 min⁻¹
- VMAX/KM (1/min) at VDAC 100 nM: 4.5 min⁻¹
- VMAX/KM (1/min) at VDAC 200 nM: 3.8 min⁻¹
